{
  "source": "paper PMC3395085",
  "binders": {"B1": {"name": "unprocessed U5 viral DNA end, 19 bp (N:r) (dsDNA)", "DNA 1": "TGCGAAATTCCATGACAAT", "DNA 2": "ATTGTCATGGAATTTCGCA"}, "B2": {"name": "3'-processed viral DNA end (R:N, 17/19-mer), formed in crystallo (dsDNA)", "DNA 1": "TGCGAAATTCCATGACA", "DNA 2": "ATTGTCATGGAATTTCGCA"}, "B3": {"name": "unprocessed U5 viral DNA end, 5'-phosphate on nonreactive strand (dsDNA)", "DNA 1": "TGCGAAATTCCATGACAAT", "DNA 2": "ATTGTCATGGAATTTCGCA", "modifications": "5'-phosphate on strand 2 (nonreactive)"}},
  "experiment_in_all_cases": "X-ray crystallography",
  "key": {"PFV integrase (IN) [1]": {"target": "T1, PFV integrase (IN) (prototype foamy virus, UniProt P14350 752-1143)"}, "PFV integrase (IN) [2]": {"target": "T1, PFV integrase (IN)", "remark": "listed apart in the source"}, "PFV integrase (IN) [3]": {"target": "T1, PFV integrase (IN)", "remark": "listed apart in the source"}},
  "note": "Where two headings read alike, the source gives them in different places.",
  "data": [
    {"binder": "B1", "values": [
      {"measurement": "binding result", "setting": "PFV integrase (IN) [1]", "result": "binds"}
    ]},
    {"binder": "B2", "values": [
      {"measurement": "binding result", "setting": "PFV integrase (IN) [2]", "result": "binds"}
    ]},
    {"binder": "B3", "values": [
      {"measurement": "binding result", "setting": "PFV integrase (IN) [3]", "result": "binds"}
    ]}
  ]
}
